The kon is the second-order rate constant of association. Read a high kon as fast association.

The target in experiment [1] is bt-MalE (Escherichia coli) [MBP: P0AEX9]. Kind of experiment: Biacore kinetics, bt-MalE on streptavidin SA chip, buffer M3 (5 mM DTT), 25 °C, Langmuir model. (Surface plasmon resonance follows binding to a sensor surface in real time, without labels.)
For experiment [2] the target is unchanged. Kind of experiment: Biacore kinetics, bt-MalE on SA chip, buffer M2 (no reducing agent), heterogeneous analyte model, population 2 (kon2), taken as the non-coupled molecules of the L53ANBD preparation.
The target is the same in experiment [3]. Kind of experiment: Biacore kinetics, bt-MalE on SA chip, buffer M2 (no reducing agent), heterogeneous analyte model, population 2 (kon2), taken as the non-coupled molecules of the N45ANBD preparation.
Experiment [4] shares this target. Kind of experiment: Biacore kinetics, bt-MalE on SA chip, buffer M2 (no reducing agent), heterogeneous analyte model, population 2 (kon2), taken as the non-coupled molecules of the R23ANBD preparation.
Experiment [5] shares this target. In words: Biacore kinetics, bt-MalE on SA chip, buffer M2 (no reducing agent), heterogeneous analyte model, population 2 (kon2), taken as the non-coupled molecules of the T46ANBD preparation, possibly dimeric.

On to DarpOff7(L53C) (designed binder), for which the on-rate constant (kon) in experiment [1] stood at 370000 M⁻¹ s⁻¹; in experiment [2], 580000 M⁻¹ s⁻¹.
On to DarpOff7(N45C) (designed binder), for which the association rate constant (kon) came out at 240000 M⁻¹ s⁻¹ in experiment [3] and 290000 M⁻¹ s⁻¹ in experiment [1].
On to DarpOff7(R23C) (designed binder), for which the kon worked out at 410000 M⁻¹ s⁻¹ in experiment [1] and 430000 M⁻¹ s⁻¹ in experiment [4].
Consider DarpOff7(T46C) (designed binder), for which the kon in experiment [5] was 18000 M⁻¹ s⁻¹; in experiment [1] it was 170000 M⁻¹ s⁻¹.
